Measured values: publication PMC10583499 (Science translational medicine, 2023)
Values belong to the binder of their own block, whether it stands above or below them.

Tests used:
[1] = target: biotinylated NRP2 (epitope binning) (Homo sapiens, UniProt O60462-3, biotin (site not stated)); experiment: BLI
[2] = target: T1, human NRP2 (v2, NM_003872.3), untagged, stably overexpressed on Expi293F cells (Expi293F-hNRP2) (human, UniProt O60462-3 21-926); experiment: flow cytometry on cells
T1 sequence (looked up): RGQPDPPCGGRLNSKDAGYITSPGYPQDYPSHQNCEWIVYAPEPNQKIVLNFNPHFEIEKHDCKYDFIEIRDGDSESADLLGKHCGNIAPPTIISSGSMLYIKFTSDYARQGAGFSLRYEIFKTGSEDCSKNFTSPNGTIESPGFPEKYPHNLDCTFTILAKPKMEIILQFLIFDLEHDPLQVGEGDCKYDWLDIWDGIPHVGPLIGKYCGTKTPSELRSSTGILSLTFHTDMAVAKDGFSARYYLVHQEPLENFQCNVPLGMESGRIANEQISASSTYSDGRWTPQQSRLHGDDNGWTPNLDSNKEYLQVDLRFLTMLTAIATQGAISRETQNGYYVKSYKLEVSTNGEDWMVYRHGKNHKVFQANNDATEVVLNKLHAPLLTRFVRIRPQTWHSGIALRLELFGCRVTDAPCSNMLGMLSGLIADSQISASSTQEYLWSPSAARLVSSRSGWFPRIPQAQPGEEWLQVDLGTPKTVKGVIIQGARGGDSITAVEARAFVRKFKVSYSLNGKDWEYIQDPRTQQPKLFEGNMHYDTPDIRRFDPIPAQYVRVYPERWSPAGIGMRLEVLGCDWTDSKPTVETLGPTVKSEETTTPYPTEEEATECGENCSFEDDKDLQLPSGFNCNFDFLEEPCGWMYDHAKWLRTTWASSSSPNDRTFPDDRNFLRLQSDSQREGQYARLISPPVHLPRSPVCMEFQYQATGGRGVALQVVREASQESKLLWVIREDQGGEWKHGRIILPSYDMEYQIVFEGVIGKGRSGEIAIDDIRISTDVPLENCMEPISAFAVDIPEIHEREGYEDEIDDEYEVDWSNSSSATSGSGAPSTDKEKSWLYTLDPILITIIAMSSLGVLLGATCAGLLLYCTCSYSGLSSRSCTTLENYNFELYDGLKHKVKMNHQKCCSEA

[3] = target: His-tagged hNRP2 (amino acids 146 to 595), a2b1b2 domains, for crystallization (human, UniProt O60462-3); experiment: crystal structure

- binding result [1]: binds
B1: Genentech aNRP2B antibody (antibody, V domains shown)
VH: EVQLVESGGGLVQPGGSLRLSCAASGFTITSSGIHWVRQAPGKGLEWVARITPYDGSTDYADSVKGRFTISADTSKNTAYLQMNSLRAEDTAVYYCARYRGRLLFDYWGQGTLVTVSS
VL: not shown

- EC50 [2]: 0.6 nM
B2: recombinant human VEGF-C, untagged (ligand, UniProt P49767 112-227, looked up)
chain: AHYNTEILKSIDNEWRKTQCMPREVCIDVGKEFGVATNTFFKPPCVSVYRCGGCCNSEGLQCMNTSTSYLSKTLFEITVPLSQGPKPVTISFANHTSCRCMSKLDVYRQVHSIIRR

- binding result [3]: binds
B3: aNRP2-10 Fab (Fab, V domains shown)
VH: EVQLVQSGAEVKKPGATVKISCKVSGFNIKDYYIHWVQQAPGKGLEWMGRIDVEDDETKYAPKFQGRVTITADTSTDTAYMELSSLRSEDTAVYYCATPIYGSREAWFAYWGQGTLVTVSS
VL: DIQMTQSPSSLSASVGDRVTITCTASSSVSSSYLHWYQQKPGKAPKLLIYRTSNLASGVPSRFSGSGSGTDFTLTISSLQPEDFATYYCHQYYRSPPTFGGGTKVEIK
